The target in one data set is mCherry-CENP-O (human) (UniProt Q9BU64). As to the kind of experiment: FRET or BRET; FLIM: donor fluorescence lifetime by time-correlated single photon counting at kinetochores of living HEp-2 cells, EGFP donor and mCherry acceptor. A general note: In BRET a luciferase serves as donor, and the signal depends on an acceptor being close.
Data set [1] addresses mCherry-CENP-P (UniProt Q6IPU0). The data set is described as above.
For data set [2] the target is unchanged. The data set is described as follows: fluorescence cross-correlation spectroscopy (FCCS); nucleoplasm free of kinetochores in living double-transfected U2OS cells, EGFP and mCherry fusions, 37°C.

Chain of UniProt Q9BU64 (Q9BU64 whole entry): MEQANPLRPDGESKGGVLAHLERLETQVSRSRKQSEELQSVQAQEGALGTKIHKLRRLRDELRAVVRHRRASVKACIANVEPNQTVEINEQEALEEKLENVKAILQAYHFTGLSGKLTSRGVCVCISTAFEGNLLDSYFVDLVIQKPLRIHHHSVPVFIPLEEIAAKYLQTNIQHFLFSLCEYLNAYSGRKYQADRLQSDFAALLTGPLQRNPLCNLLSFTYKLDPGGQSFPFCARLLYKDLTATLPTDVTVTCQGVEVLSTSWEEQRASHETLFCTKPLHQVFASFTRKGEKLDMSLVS

For the substance “CENP-P-EGFP (from UniProt Q6IPU0 1-288) (natural protein)”, in the data set with mCherry-CENP-O (human), the donor fluorescence lifetime in the presence of the acceptor came to 2.16 nsec.

Turning to “CENP-Q-EGFP (from UniProt Q7L2Z9 1-268) (natural protein)”, the donor fluorescence lifetime in the presence of the acceptor in the data set with mCherry-CENP-P [1] amounted to 2.08 nsec.

EGFP-CENP-O: the “percent hetero-dimers, the authors' corrected estimate” value in the data set with mCherry-CENP-P [2] (other: fluorescence cross-correlation spectroscopy (FCCS)) is listed as “we estimate 40–60%”.

As for “EGFP-CENP-O (from UniProt Q9BU64 1-300) (natural protein)”, in the data set with mCherry-CENP-P [2], the percent hetero-dimers, A(CC)/A(AC) is 20 to 30% and the percent of the molecules co-migrating (cross-correlation amplitude over mCherry amplitude) was determined as 29%.

These data come from publication PMC3445539.
